Results from patent US10450368.

Columns and labels:
[1] = molecular target: CH0505_CON D7gp120/293i; assay: ELISA
[2] = molecular target: CH505.TF mutant gp120 M6 (HIV-1); assay: ELISA
[3] = molecular target: CH505.M5D8gp120293F; assay: ELISA
[4] = molecular target: CH505.w30.12D8gp120; assay: ELISA
[5] = molecular target: CH505w136.B18D8gp120; assay: ELISA
[6] = molecular target: CH505.M19D8gp120; assay: ELISA
[7] = molecular target: CH505.TF mutant gp120 M8 (HIV-1); assay: ELISA
[8] = molecular target: CH505.M9D8gp120/293F; assay: ELISA
[9] = molecular target: CH505w030.20D8gp120/293F; assay: ELISA
[10] = molecular target: CH505.M21D8gp120/293F; assay: ELISA
[11] = molecular target: CH505.M11D8gp120/293F; assay: ELISA
[12] = molecular target: CH505w020.14D8gp120; assay: ELISA
[13] = molecular target: CH505.TF mutant gp120 M20 (HIV-1); assay: ELISA
[14] = molecular target: CH505.M7D8gp120/293F; assay: ELISA
[15] = molecular target: CH505.M10D8gp120; assay: ELISA
[16] = molecular target: Jo-1 (UniProt P12081); assay: AtheNA, Ab 6.25 ug/ml
Chain of Jo-1 (P12081 whole entry): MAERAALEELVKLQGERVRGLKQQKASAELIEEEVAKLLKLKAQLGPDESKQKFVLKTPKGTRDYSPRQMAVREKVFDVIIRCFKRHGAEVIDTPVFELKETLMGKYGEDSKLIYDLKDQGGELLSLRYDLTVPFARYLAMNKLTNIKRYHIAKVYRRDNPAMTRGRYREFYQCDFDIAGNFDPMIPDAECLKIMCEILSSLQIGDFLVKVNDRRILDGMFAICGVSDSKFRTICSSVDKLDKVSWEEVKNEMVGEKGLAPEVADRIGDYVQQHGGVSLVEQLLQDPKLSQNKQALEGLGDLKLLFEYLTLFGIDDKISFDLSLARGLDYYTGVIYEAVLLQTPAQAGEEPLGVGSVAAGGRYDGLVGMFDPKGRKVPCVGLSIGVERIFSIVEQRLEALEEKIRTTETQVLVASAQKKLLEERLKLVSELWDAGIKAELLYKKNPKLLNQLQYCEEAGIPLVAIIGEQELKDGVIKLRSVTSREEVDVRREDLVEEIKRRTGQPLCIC

[17] = molecular target: Scl-70 (UniProt P11387); assay: AtheNA, Ab 6.25 ug/ml
Chain of Scl-70 (P11387 whole entry): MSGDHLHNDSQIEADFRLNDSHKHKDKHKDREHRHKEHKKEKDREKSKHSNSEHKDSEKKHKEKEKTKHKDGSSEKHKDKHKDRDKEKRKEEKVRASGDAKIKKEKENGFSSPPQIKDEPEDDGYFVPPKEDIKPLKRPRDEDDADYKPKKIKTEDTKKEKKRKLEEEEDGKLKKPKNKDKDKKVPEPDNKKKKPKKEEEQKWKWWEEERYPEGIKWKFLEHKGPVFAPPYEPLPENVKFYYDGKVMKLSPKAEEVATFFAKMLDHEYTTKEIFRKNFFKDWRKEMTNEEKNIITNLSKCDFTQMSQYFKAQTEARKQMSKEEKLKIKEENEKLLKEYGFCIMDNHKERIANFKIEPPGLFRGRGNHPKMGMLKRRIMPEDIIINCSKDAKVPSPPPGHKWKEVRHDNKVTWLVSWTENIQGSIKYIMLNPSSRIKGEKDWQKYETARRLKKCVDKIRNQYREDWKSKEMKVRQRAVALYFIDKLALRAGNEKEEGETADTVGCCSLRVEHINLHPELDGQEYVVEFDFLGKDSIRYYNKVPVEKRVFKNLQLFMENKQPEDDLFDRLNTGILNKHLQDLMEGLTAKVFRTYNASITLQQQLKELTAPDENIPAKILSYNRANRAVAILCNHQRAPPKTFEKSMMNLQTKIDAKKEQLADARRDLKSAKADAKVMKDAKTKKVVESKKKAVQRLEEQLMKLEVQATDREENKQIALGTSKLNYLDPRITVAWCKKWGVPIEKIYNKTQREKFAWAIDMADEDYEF

[18] = molecular target: SSB (UniProt P05455); assay: AtheNA, Ab 6.25 ug/ml
Chain of SSB (P05455 whole entry): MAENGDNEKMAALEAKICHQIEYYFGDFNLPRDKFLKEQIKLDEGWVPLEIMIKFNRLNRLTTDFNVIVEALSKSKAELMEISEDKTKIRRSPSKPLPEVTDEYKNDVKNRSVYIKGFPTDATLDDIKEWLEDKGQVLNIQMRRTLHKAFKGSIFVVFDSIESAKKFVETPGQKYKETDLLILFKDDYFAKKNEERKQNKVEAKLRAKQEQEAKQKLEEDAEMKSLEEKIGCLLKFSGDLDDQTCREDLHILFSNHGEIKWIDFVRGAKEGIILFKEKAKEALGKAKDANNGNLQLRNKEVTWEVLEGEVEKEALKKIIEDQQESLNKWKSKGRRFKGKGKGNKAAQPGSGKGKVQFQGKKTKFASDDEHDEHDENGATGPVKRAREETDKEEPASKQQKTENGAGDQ

[19] = molecular target: RNP (ribonucleoprotein); assay: AtheNA, Ab 6.25 ug/ml
[20] = molecular target: Sm (Smith antigen); assay: AtheNA, Ab 6.25 ug/ml
[21] = molecular target: SSA; assay: AtheNA, Ab 6.25 ug/ml
[22] = molecular target: Histones; assay: AtheNA, Ab 6.25 ug/ml
[23] = molecular target: Centromere B (UniProt P07199); assay: AtheNA, Ab 6.25 ug/ml
Chain of Centromere B (P07199 whole entry): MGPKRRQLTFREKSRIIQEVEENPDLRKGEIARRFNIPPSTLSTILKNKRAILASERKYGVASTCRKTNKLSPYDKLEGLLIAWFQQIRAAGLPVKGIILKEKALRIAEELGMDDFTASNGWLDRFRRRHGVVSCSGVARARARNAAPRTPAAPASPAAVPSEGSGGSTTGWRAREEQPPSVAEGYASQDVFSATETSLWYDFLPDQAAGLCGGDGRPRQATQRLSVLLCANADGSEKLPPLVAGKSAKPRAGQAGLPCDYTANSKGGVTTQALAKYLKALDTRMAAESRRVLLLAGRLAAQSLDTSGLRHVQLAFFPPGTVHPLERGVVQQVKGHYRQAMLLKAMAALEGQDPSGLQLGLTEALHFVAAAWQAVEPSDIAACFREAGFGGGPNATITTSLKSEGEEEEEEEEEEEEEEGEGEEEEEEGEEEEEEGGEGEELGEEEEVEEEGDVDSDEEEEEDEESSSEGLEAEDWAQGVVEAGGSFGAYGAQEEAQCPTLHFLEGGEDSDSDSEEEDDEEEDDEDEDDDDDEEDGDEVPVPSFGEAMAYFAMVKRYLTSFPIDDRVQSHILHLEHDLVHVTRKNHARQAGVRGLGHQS

[24] = molecular target: Jo-1 (UniProt P12081); assay: AtheNA, Ab 12.5 ug/ml
[25] = molecular target: Scl-70 (UniProt P11387); assay: AtheNA, Ab 12.5 ug/ml
[26] = molecular target: SSB (UniProt P05455); assay: AtheNA, Ab 12.5 ug/ml
[27] = molecular target: RNP (ribonucleoprotein); assay: AtheNA, Ab 12.5 ug/ml
[28] = molecular target: Sm (Smith antigen); assay: AtheNA, Ab 12.5 ug/ml
[29] = molecular target: SSA; assay: AtheNA, Ab 12.5 ug/ml
[30] = molecular target: Histones; assay: AtheNA, Ab 12.5 ug/ml
[31] = molecular target: Centromere B (UniProt P07199); assay: AtheNA, Ab 12.5 ug/ml
[32] = molecular target: Jo-1 (UniProt P12081); assay: AtheNA, Ab 25 ug/ml
[33] = molecular target: Scl-70 (UniProt P11387); assay: AtheNA, Ab 25 ug/ml
[34] = molecular target: SSB (UniProt P05455); assay: AtheNA, Ab 25 ug/ml
[35] = molecular target: RNP (ribonucleoprotein); assay: AtheNA, Ab 25 ug/ml
[36] = molecular target: Sm (Smith antigen); assay: AtheNA, Ab 25 ug/ml
[37] = molecular target: SSA; assay: AtheNA, Ab 25 ug/ml
[38] = molecular target: Histones; assay: AtheNA, Ab 25 ug/ml
[39] = molecular target: Centromere B (UniProt P07199); assay: AtheNA, Ab 25 ug/ml
[40] = molecular target: HIV-1 CH505 transmitted/founder gp120 Env (HIV-1); assay: SPR, antibody captured on anti-human Ig Fc, gp120 injected
[41] = molecular target: CH505.TF mutant gp120 M6 (HIV-1); assay: direct-binding ELISA
[42] = molecular target: CH505.M5D8gp120293F; assay: direct-binding ELISA
[43] = molecular target: CH505.M19D8gp120; assay: direct-binding ELISA
[44] = molecular target: CH505.TF mutant gp120 M8 (HIV-1); assay: direct-binding ELISA
[45] = molecular target: CH505.M9D8gp120/293F; assay: direct-binding ELISA
[46] = molecular target: CH505.M21D8gp120/293F; assay: direct-binding ELISA
[47] = molecular target: CH505.M11D8gp120/293F; assay: direct-binding ELISA
[48] = molecular target: CH505.TF mutant gp120 M20 (HIV-1); assay: direct-binding ELISA
[49] = molecular target: CH505.M7D8gp120/293F; assay: direct-binding ELISA
[50] = molecular target: CH505.M10D8gp120; assay: direct-binding ELISA

Substance: CH235 IA4 (antibody)
- LogAUC [1]: 0
- LogAUC [2]: 0
- LogAUC [3]: 1.36
- LogAUC [4]: 0
- LogAUC [5]: 0
- LogAUC [6]: 0
- LogAUC [7]: 0
- LogAUC [8]: 0
- LogAUC [9]: 0.24
- LogAUC [10]: 0
- LogAUC [11]: 0
- LogAUC [12]: 0
- LogAUC [13]: 0
- LogAUC [14]: 0
- LogAUC [15]: 0.12
- AtheNA signal (relative luminescence units) [16]: 4
- AtheNA signal (relative luminescence units) [17]: 2
- AtheNA signal (relative luminescence units) [18]: 5
- AtheNA signal (relative luminescence units) [19]: 3
- AtheNA signal (relative luminescence units) [20]: 6
- AtheNA signal (relative luminescence units) [21]: 11
- AtheNA signal (relative luminescence units) [22]: 4
- AtheNA signal (relative luminescence units) [23]: 5
- AtheNA signal (relative luminescence units) [24]: 3
- AtheNA signal (relative luminescence units) [25]: 2
- AtheNA signal (relative luminescence units) [26]: 3
- AtheNA signal (relative luminescence units) [27]: 4
- AtheNA signal (relative luminescence units) [28]: 6
- AtheNA signal (relative luminescence units) [29]: 11
- AtheNA signal (relative luminescence units) [30]: 6
- AtheNA signal (relative luminescence units) [31]: 5
- AtheNA signal (relative luminescence units) [32]: 2
- AtheNA signal (relative luminescence units) [33]: 2
- AtheNA signal (relative luminescence units) [34]: 4
- AtheNA signal (relative luminescence units) [35]: 5
- AtheNA signal (relative luminescence units) [36]: 12
- AtheNA signal (relative luminescence units) [37]: 12
- AtheNA signal (relative luminescence units) [38]: 9
- AtheNA signal (relative luminescence units) [39]: 10
- Kd [40]: 30.6 µM
- koff [40]: 0.0881 s⁻¹
- kon [40]: 2900 M⁻¹ s⁻¹

Substance: CH235UA/293i (antibody)
- AtheNA signal (relative luminescence units) [16]: 3
- AtheNA signal (relative luminescence units) [17]: 3
- AtheNA signal (relative luminescence units) [18]: 5
- AtheNA signal (relative luminescence units) [19]: 2
- AtheNA signal (relative luminescence units) [20]: 5
- AtheNA signal (relative luminescence units) [21]: 10
- AtheNA signal (relative luminescence units) [22]: 2
- AtheNA signal (relative luminescence units) [23]: 2
- AtheNA signal (relative luminescence units) [24]: 5
- AtheNA signal (relative luminescence units) [25]: 3
- AtheNA signal (relative luminescence units) [26]: 4
- AtheNA signal (relative luminescence units) [27]: 3
- AtheNA signal (relative luminescence units) [28]: 6
- AtheNA signal (relative luminescence units) [29]: 9
- AtheNA signal (relative luminescence units) [30]: 4
- AtheNA signal (relative luminescence units) [31]: 3
- AtheNA signal (relative luminescence units) [32]: 5
- AtheNA signal (relative luminescence units) [33]: 3
- AtheNA signal (relative luminescence units) [34]: 3
- AtheNA signal (relative luminescence units) [35]: 4
- AtheNA signal (relative luminescence units) [36]: 6
- AtheNA signal (relative luminescence units) [37]: 9
- AtheNA signal (relative luminescence units) [38]: 3
- AtheNA signal (relative luminescence units) [39]: 3

Substance: CH104 (antibody)
- LogAUC [41]: 11.6
- LogAUC [42]: 9.02
- LogAUC [43]: 11.3
- LogAUC [44]: 10.1
- LogAUC [45]: 10.8
- LogAUC [46]: 11.2
- LogAUC [47]: 12
- LogAUC [48]: 10.8
- LogAUC [49]: 9.73
- LogAUC [50]: 11.7

Substance: CH103 (antibody)
- LogAUC [41]: 13.1
- LogAUC [42]: 9.84
- LogAUC [43]: 13.3
- LogAUC [44]: 11.5
- LogAUC [45]: 11.6
- LogAUC [46]: 11.4
- LogAUC [47]: 13.4
- LogAUC [48]: 12.2
- LogAUC [49]: 11.1
- LogAUC [50]: 13.2

Substance: CH103 UCA (antibody)
- LogAUC [1]: 4.3
- LogAUC [4]: 0
- LogAUC [5]: 0
- LogAUC [9]: 0
- LogAUC [12]: 0.33
- LogAUC [41]: 5.23
- LogAUC [42]: 0
- LogAUC [43]: 1.74
- LogAUC [44]: 0
- LogAUC [45]: 0.12
- LogAUC [46]: 0
- LogAUC [47]: 2.62
- LogAUC [48]: 0
- LogAUC [49]: 0.44
- LogAUC [50]: 1.35
- Kd [40]: 0.227 µM
- kon [40]: 37000 M⁻¹ s⁻¹

Substance: CH235 IA3 (antibody)
- LogAUC [1]: 5.09
- LogAUC [2]: 2.96
- LogAUC [3]: 7.01
- LogAUC [4]: 0
- LogAUC [5]: 0
- LogAUC [6]: 0.11
- LogAUC [7]: 0
- LogAUC [8]: 0
- LogAUC [9]: 1.16
- LogAUC [10]: 0
- LogAUC [11]: 0
- LogAUC [12]: 2.72
- LogAUC [13]: 0
- LogAUC [14]: 0
- LogAUC [15]: 0.08
- AtheNA signal (relative luminescence units) [16]: 2
- AtheNA signal (relative luminescence units) [17]: 2
- AtheNA signal (relative luminescence units) [18]: 3
- AtheNA signal (relative luminescence units) [19]: 4
- AtheNA signal (relative luminescence units) [20]: 7
- AtheNA signal (relative luminescence units) [21]: 12
- AtheNA signal (relative luminescence units) [22]: 5
- AtheNA signal (relative luminescence units) [23]: 9
- AtheNA signal (relative luminescence units) [24]: 3
- AtheNA signal (relative luminescence units) [25]: 3
- AtheNA signal (relative luminescence units) [26]: 6
- AtheNA signal (relative luminescence units) [27]: 5
- AtheNA signal (relative luminescence units) [28]: 12
- AtheNA signal (relative luminescence units) [29]: 12
- AtheNA signal (relative luminescence units) [30]: 7
- AtheNA signal (relative luminescence units) [31]: 15
- AtheNA signal (relative luminescence units) [32]: 8
- AtheNA signal (relative luminescence units) [33]: 4
- AtheNA signal (relative luminescence units) [34]: 9
- AtheNA signal (relative luminescence units) [35]: 7
- AtheNA signal (relative luminescence units) [36]: 13
- AtheNA signal (relative luminescence units) [37]: 10
- AtheNA signal (relative luminescence units) [38]: 12
- AtheNA signal (relative luminescence units) [39]: 27
